Results as given in PMC9798971, “Alarming and Calming: Opposing Roles of S100A8/S100A9 Dimers and Tetramers on Monocytes” (Advanced Science, 2022).

T1: murine S100A9 (murine, UniProt P31725 1-113)
T1 construct: S100A9 (MRP14), murine; also called MRP14
T1 sequence (looked up): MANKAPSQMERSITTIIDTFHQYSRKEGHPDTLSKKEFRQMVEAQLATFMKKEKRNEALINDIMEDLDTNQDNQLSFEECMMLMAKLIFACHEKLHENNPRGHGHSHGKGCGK

T2: murine S100A9-N70A (murine, UniProt P31725 1-113, N70A)
T2 sequence (looked up): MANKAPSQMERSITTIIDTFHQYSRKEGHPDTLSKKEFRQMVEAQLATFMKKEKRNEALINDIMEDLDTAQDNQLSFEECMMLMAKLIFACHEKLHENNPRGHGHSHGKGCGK

T3: S100A8/S100A9-tetramer (murine) (murine, UniProt P27005 1-89; P31725 1-113)
T3 chain 1: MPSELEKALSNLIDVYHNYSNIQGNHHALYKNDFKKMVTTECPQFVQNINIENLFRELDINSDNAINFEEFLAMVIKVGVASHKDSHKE
T3 chain 2: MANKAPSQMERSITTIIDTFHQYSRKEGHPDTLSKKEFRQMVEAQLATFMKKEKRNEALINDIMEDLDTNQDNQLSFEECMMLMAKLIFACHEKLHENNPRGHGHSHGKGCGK


Legend:
murine S100A9 = molecular target: T1, murine S100A9; test: reconstitution by refolding together, anion exchange chromatography; equal amounts of the two purified proteins mixed with 1 mM DTT, denatured at pH 2, renatured by stepwise increase of pH to 7.4; residual homodimers separated by anion exchange chromatography; conditions: both partners purified
murine S100A9-N70A = molecular target: T2, murine S100A9-N70A; test: as above; conditions: both partners purified
[1] = molecular target: T3, S100A8/S100A9-tetramer (murine); test: ELISA

binding result (murine S100A9)	binding result (murine S100A9-N70A)	Kd [1]	Binder
binds	binds	–	murine S100A8 (natural protein, UniProt P27005 1-89, looked up, S100A8 (MRP8), murine; also called MRP8) MPSELEKALSNLIDVYHNYSNIQGNHHALYKNDFKKMVTTECPQFVQNINIENLFRELDINSDNAINFEEFLAMVIKVGVASHKDSHKE
–	–	5.06 nM	recombinant mouse CD69, His-tagged extracellular domain (domain or fragment) NVGKYNCPGLYEKLESSDHHVATCKNEWISYKRTCYFFSTTTKSWALAQRSCSEDAATLAVIDSEKDMTFLKRYSGELEHWIGLKNEANQTWKWANGKEFNSWFNLTGSGRCVSVNHKNVTAVDCEANFHWVCSKPSR
